This note sets out measurements from PMC5709735, “Real‐time detection of condensin‐driven DNA compaction reveals a multistep binding mechanism” (The EMBO Journal, 2017).

In the data set the test system is T1, Nc1ncnc2c1ncn2[C@@H]1O[C@H](COP(=O)(O)OP(=O)(O)OP(=O)(O)O)[C@@H](O)[C@H]1O.
T1 construct: pentameric holocomplex overexpressed in budding yeast from galactose-inducible promoters; His12 tag on Brn1, triple StrepII tag on Smc4; gel-filtered monomeric complexes; with Condensin complex subunit 2; Condensin complex subunit 1; Condensin complex subunit 3
Kind of data set: single-molecule magnetic tweezers, DNA compaction rate vs ATP, Michaelis-Menten fit. In kind it is biochemical, Saccharomyces cerevisiae. Particulars: 8.6 nM condensin, tethered 20-kb DNA under constant force, 10 mM HEPES-NaOH pH 7.9, 125 mM NaCl, 5 mM MgCl2, 1 mM DTT, error is 95% confidence interval, read-out is compaction rate, not ATP turnover.

On to “S. cerevisiae condensin holocomplex (Smc2–Smc4–Brn1–Ycs4–Ycg1) (Saccharomyces cerevisiae S288C)”, for which the Km was found to be 1400 ± 1500 µM.
